Ends that are not written are not given here.
What was measured:
[1] = biological target: human G protein-coupled receptor protein hOT7T022 (human, UniProt Q9GZQ6 1-430); experiment: cell-based or functional assay
[2] = biological target: rat G protein-coupled receptor protein rOT7T022L (rat, UniProt Q9EP86 1-432); experiment: cell-based or functional assay
rat G protein-coupled receptor protein rOT7T022L, sequence (Q9EP86 whole entry): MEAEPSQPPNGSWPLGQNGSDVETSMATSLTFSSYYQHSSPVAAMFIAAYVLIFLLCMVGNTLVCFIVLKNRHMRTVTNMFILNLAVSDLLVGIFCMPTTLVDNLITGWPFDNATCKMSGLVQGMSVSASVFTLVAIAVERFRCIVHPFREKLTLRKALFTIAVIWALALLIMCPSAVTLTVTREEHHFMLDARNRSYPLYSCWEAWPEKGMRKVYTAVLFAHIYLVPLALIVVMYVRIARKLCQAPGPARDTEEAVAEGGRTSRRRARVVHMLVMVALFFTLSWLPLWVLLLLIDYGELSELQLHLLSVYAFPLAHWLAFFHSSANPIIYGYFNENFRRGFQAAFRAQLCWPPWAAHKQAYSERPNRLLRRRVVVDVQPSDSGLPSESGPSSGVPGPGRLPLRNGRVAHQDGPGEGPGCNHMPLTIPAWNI

human G protein-coupled receptor protein hOT7T022, sequence (Q9GZQ6 whole entry): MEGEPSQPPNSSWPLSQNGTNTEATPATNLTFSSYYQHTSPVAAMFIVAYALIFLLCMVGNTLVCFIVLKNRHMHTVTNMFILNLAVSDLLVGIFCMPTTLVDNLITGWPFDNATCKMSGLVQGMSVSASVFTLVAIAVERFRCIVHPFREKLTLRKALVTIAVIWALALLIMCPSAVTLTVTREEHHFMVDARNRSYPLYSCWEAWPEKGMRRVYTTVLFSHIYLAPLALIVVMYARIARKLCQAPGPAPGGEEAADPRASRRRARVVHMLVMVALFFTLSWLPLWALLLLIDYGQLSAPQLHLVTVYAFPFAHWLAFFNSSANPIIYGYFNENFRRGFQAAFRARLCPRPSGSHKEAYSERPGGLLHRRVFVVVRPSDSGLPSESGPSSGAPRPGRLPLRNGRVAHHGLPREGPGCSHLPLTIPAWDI

Binder	ED50, inhibition of the increased cAMP level in the cells by the forskolin treatment [1] [µM]	IC50 of cAMP production suppression (forskolin-stimulated cells, cAMP EIA) [2] [µM]
PQRF-NH2 [PQRFamide (peptide shown by Pro-Gln-Arg-Phe-NH2)]	≥ 1	
SLNFEELKDWGPKNVIKMSTPAVNKMPHSFANLPLRF-NH2 [hRFRP-1-37 (peptide having the 56 (Ser) to 92 (Phe) amino acid sequence in SEQ ID NO: 1)]	0.021	

Second part, the binder after the results:

ED50, inhibition of the increased cAMP level in the cells by the forskolin treatment [1] [µM]	IC50 of cAMP production suppression (forskolin-stimulated cells, cAMP EIA) [2] [µM]	Binder
0.03		SVTFQELKDWGAKKDIKMSPAPANKVPHSAANLPLRF (ends and bridges not checked) [rRFRP-1-37 (peptide having the 58 (Ser) to 94 (Phe) amino acid sequence in SEQ ID NO: 50)]
0.0045	0.0005	MPHSFANLPLRF-NH2 [peptide MPHSFANLPLRFamide (SEQ ID NO: 39)]

Source: patent US20040132073A1 (Takeda / Millennium, published 2004)
